The data set has as its target Diphtheria toxin anti-CD5 ScFv fusion protein bearing a granzyme B cleavage sequence.

The values below come from patent US20100256070A1.

B1: mouse granzyme B (protein)
chain: IIGGHEVKPHSRPYMALLSIKDQQPEAICGGFLIREDFVLTAAHCEGSIINVTLGAHNIKEQEKTQQVIPMVKCIPHPDYNPKTFSNDIMLLKLKSKAKRTRAVRPLNLPRRNVNVKPGDVCYVAGWGRMAPMGKYSNTLQEVELTVQKDRECESYFKNRYNKTNQICAGDPKTKRASFRGDSGGPLVCKKVAAGIVSYGYKDGSPPRAFTKVSSFLSWIKKTMKSS
Turning to B1, the “in vitro cleavage by granzyme B (gel)” value was “only a small fraction of DT and PEA fusion proteins was cleaved”.
